Source: publication PMC7570948 (2020)
One block for each binder: values may come before it.

Experiments:
[1] = target: T1, CCR7-eGFP stably expressed on 300-19 pre-B cells (human, UniProt P32248 25-378); assay: FACS; 37°C, competition with 25 nM CCL19-Dy649P1 (printed as EC50; partial inhibition)
T1 chain: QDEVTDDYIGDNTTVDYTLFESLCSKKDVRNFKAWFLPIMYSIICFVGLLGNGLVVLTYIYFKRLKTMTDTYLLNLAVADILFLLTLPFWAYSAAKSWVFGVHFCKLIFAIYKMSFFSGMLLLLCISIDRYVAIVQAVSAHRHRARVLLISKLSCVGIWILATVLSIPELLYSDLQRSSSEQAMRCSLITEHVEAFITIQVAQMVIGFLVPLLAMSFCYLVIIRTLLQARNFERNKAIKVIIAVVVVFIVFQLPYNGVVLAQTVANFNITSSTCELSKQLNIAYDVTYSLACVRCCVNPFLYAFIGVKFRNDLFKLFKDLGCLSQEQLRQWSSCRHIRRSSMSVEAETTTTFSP

[2] = target: T1, CCR7-eGFP stably expressed on 300-19 …; assay: FACS; 37°C, competition with 25 nM CCL19-Dy649P1 (printed as EC50)
[3] = target: T1, CCR7-eGFP stably expressed on 300-19 …; assay: FACS; 10°C, competition with 25 nM CCL19-Dy649P1 (printed as EC50)

IC50 [1]: 9.2 nM
B1: CXCL14 (synthetic, unlabeled human CXCL14) (ligand)
chain: SKCKCSRKGPKIRYSDVKKLEMKPKYPHCEEKMVIITTKSVSRYRGQEHCLHPKLQSTKRFIKWYNAWNEKRRVYEE

IC50 [2]: 14.1 nM | IC50 [3]: 10.1 nM
B2: CCL19 (synthetic, unlabeled human CCL19) (ligand)
chain: GTNDAEDCCLSVTQKPIPGYIVRNFHYLLIKDGCRVPAVVFTTLRGRQLCAPPDQPWVERIIQRLQRTSAKMKRRSS
